Patent US20230212319A1, “NOVEL ANTIGEN BINDING DOMAINS AND SYNTHETIC ANTIGEN RECEPTORS INCORPORATING THE SAME” (University of Southern California, priority 2020, published 2023)
“Also recorded” adds a separate entry of the source.

Assays:
[1] = system: KMH2 (PSMA-low) cells; assay: JNG NFAT-GFP induction on co-culture with KMH2
[2] = system: Huh-7 cells; assay: JNG NFAT-GFP induction on co-culture with Huh-7

Row | Molecule | NFAT-GFP ASSAY: KMH2 [1] | NFAT-GFP ASSAY: Huh-7 [2]
1 | 21886 (protein) MALPVTALLLPLALLLHAARPDIQMTQSPSSLSASVGDRVTITCKASQDVGTAVDWYQQKPGKAPKLLIYWASTRHTGVPSRFSGSGSGTDFTLTISSLQPEDFATYYCQQYNSYPLTFGQGTKVEIKRLEAEISHTQKATLVCLATGFYPDHVELSWWVNGKEVHSGVCTDPQPLKEQPALNDSRYCLSSRLRVSATFWQNPRNHFRCQVQFYGLSENDEWTQDRAKPVTQIVSAEAWGRADCGFTSESYQQGVLSATILYEILLGKATLYAVLVSALVLMAMVKRKDSRGRAKRSGSGATNFSLLKQAGDVEENPGPTSMDWIWRILFLVGAATGAHSFEVQLVESGGGLVQPGGSLRLSCAASGYTFTEYTIHWVRQAPGKGLEWVANINPNNGGTTYNQKFEDRFTISRDNSKNTLYLQMNSLRAEDTAVYYCARGWNFDYWGQGTLVTVSSTRDKSVCLFTDFDSQTNVSQSKDSDVYITDKCVLDMRSMDFKSNSAVAWSNKSDFACANAFNNSIIPEDTFFPSPESSCDVKLVEKSFETDTNLNFQNLSVIGFRILLLKVAGFNLLMTLRLWSSRAKRSGSGVKQTLNFDLLKLAGDVESNPGPSRGHMTEYKPTVRLATRDDVPRAVRTLAAAFADYPATRHTVDPDRHIERVTELQELFLTRVGLDIGKVWVADDGAAVAVWTTPESVEAGAVFAEIGPRMAELSGSRLAAQQQMEGLLAPHRPKEPAWFLATVGVSPDHQGKGLGSAVVLPGVEAAERAGVPAFLETSAPRNLPFYERLGFTVTADVEVPEGPRTWCMTRKPGA | negligible GFP induction; also recorded: negligible activity | negligible GFP induction; also recorded: negligible activity
2 | 21892 (protein) MALPVTALLLPLALLLHAARPDIQMTQSPSSLSASVGDRVTITCKASQDVGTAVDWYQQKPGKAPKLLIYWASTRHTGVPSRFSGSGSGTDFTLTISSLQPEDFATYYCQQYNSYPLTFGQGTKVEIKRLEDLKNVFPPEVAVFEPSEAEISHTQKATLVCLATGFYPDHVELSWWVNGKEVHSGVCTDPQPLKEQPALNDSRYCLSSRLRVSATFWQNPRNHFRCQVQFYGLSENDEWTQDRAKPVTQIVSAEAWGRADCGFTSESYQQGVLSATILYEILLGKATLYAVLVSALVLMAMVKRKDSRGRAKRSGSGATNFSLLKQAGDVEENPGPTSMDWIWRILFLVGAATGAHSFEVQLVESGGGLVQPGGSLRLSCAASGYTFTEYTIHWVRQAPGKGLEWVANINPNNGGTTYNQKFEDRFTISRDNSKNTLYLQMNSLRAEDTAVYYCARGWNFDYWGQGTLVTVSSTRIQNPDPAVYQLRDSKSSDKSVCLFTDFDSQTNVSQSKDSDVYITDKCVLDMRSMDFKSNSAVAWSNKSDFACANAFNNSIIPEDTFFPSPESSCDVKLVEKSFETDTNLNFQNLSVIGFRILLLKVAGFNLLMTLRLWSSRAKRSGSGVKQTLNFDLLKLAGDVESNPGPSRGHMTEYKPTVRLATRDDVPRAVRTLAAAFADYPATRHTVDPDRHIERVTELQELFLTRVGLDIGKVWVADDGAAVAVWTTPESVEAGAVFAEIGPRMAELSGSRLAAQQQMEGLLAPHRPKEPAWFLATVGVSPDHQGKGLGSAVVLPGVEAAERAGVPAFLETSAPRNLPFYERLGFTVTADVEVPEGPRTWCMTRKPGA | negligible GFP induction | negligible GFP induction
3 | 21884 (protein) MALPVTALLLPLALLLHAARPDIQMTQSPSSLSASVGDRVTITCKASQDVGTAVDWYQQKPGKAPKLLIYWASTRHTGVPSRFSGSGSGTDFTLTISSLQPEDFATYYCQQYNSYPLTFGQGTKVEIKRLETIFLPSIAETKLQKAGTYLCLLEKFFPDVIKIHWQEKKSNTILGSQEGNTMKTNDTYMKFSWLTVPEKSLDKEHRCIVRHENNKNGVDQEIIFPPIKTDVITMDPKDNCSKDANDTLLLQLTNTSAYYMYLLLLLKSVVYFAIITCCLLRRTAFCCNGEKSRAKRSGSGATNFSLLKQAGDVEENPGPTSMDWIWRILFLVGAATGAHSFEVQLVESGGGLVQPGGSLRLSCAASGYTFTEYTIHWVRQAPGKGLEWVANINPNNGGTTYNQKFEDRFTISRDNSKNTLYLQMNSLRAEDTAVYYCARGWNFDYWGQGTLVTVSSTRPHTKPSVFVMKNGTNVACLVKEFYPKDIRINLVSSKKITEFDPAIVISPSGKYNAVKLGKYEDSNSVTCSVQHDNKTVHSTDFEVKTDSTDHVKPKETENTKQPSKSCHKPKAIVHTEKVNMMSLTVLGLRMLFAKTVAVNFLLTAKLFFLRAKRSGSGVKQTLNFDLLKLAGDVESNPGPSRGHMTEYKPTVRLATRDDVPRAVRTLAAAFADYPATRHTVDPDRHIERVTELQELFLTRVGLDIGKVWVADDGAAVAVWTTPESVEAGAVFAEIGPRMAELSGSRLAAQQQMEGLLAPHRPKEPAWFLATVGVSPDHQGKGLGSAVVLPGVEAAERAGVPAFLETSAPRNLPFYERLGFTVTADVEVPEGPRTWCMTRKPGA | negligible GFP induction | negligible GFP induction
4 | 21887 (protein) MALPVTALLLPLALLLHAARPDIQMTQSPSSLSASVGDRVTITCKASQDVGTAVDWYQQKPGKAPKLLIYWASTRHTGVPSRFSGSGSGTDFTLTISSLQPEDFATYYCQQYNSYPLTFGQGTKVEIKRLEPSEAEISHTQKATLVCLATGFYPDHVELSWWVNGKEVHSGVCTDPQPLKEQPALNDSRYCLSSRLRVSATFWQNPRNHFRCQVQFYGLSENDEWTQDRAKPVTQIVSAEAWGRADCGFTSESYQQGVLSATILYEILLGKATLYAVLVSALVLMAMVKRKDSRGRAKRSGSGATNFSLLKQAGDVEENPGPTSMDWIWRILFLVGAATGAHSFEVQLVESGGGLVQPGGSLRLSCAASGYTFTEYTIHWVRQAPGKGLEWVANINPNNGGTTYNQKFEDRFTISRDNSKNTLYLQMNSLRAEDTAVYYCARGWNFDYWGQGTLVTVSSTRDKSVCLFTDFDSQTNVSQSKDSDVYITDKCVLDMRSMDFKSNSAVAWSNKSDFACANAFNNSIIPEDTFFPSPESSCDVKLVEKSFETDTNLNFQNLSVIGFRILLLKVAGFNLLMTLRLWSSRAKRSGSGVKQTLNFDLLKLAGDVESNPGPSRGHMTEYKPTVRLATRDDVPRAVRTLAAAFADYPATRHTVDPDRHIERVTELQELFLTRVGLDIGKVWVADDGAAVAVWTTPESVEAGAVFAEIGPRMAELSGSRLAAQQQMEGLLAPHRPKEPAWFLATVGVSPDHQGKGLGSAVVLPGVEAAERAGVPAFLETSAPRNLPFYERLGFTVTADVEVPEGPRTWCMTRKPGA | negligible GFP induction | negligible GFP induction
